The numbers were not newly measured in article PMC6399403, which cites them from elsewhere.

pKd: −log10 of the molar value. Read-outs that look alike come from different tables or passages of the source.

As a reminder, the pKd is the negative decadic logarithm of the Kd, by convention in mol/L.

Data set [1] concerns the target CD155 (Homo sapiens) (UniProt P15151).
Data set [2] has the same target. This is another data set of the same source.

Sequence of UniProt P15151 (P15151 21-343): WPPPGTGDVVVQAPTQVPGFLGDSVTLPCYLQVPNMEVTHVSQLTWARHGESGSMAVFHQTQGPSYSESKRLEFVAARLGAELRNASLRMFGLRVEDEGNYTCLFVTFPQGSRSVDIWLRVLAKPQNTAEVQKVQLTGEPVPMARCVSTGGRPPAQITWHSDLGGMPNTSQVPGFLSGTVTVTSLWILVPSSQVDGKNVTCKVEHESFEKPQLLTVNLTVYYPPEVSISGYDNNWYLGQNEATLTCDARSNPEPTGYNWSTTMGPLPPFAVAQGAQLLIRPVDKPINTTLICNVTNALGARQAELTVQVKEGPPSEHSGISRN

TIGIT (from UniProt Q495A1): in data set [1], the pKd was 9.00.
For CD226 (from UniProt Q15762), in data set [2], the pKd is 7.00.
